Common to all, as to assay: malachite green phosphate release after HCl stop, Michaelis-Menten fit
Type in all cases: biochemical, Santalum album
Settings in all cases: 10 mM Mg2+, 25 mM HEPES, 30°C, 10 min

Substrate in series [1]: CC(C)=CCC/C(C)=C/COP(=O)(O)OP(=O)(O)O
An excerpt:
(§1) malachite green phosphate release after HCl stop, Michaelis-Menten fit on SaTPS3

Substrate in series [2]: CC(C)=CCC/C(C)=C/CC/C(C)=C/CO[P@@](=O)(O)OP(=O)(O)O
Excerpt: as §1

Substrate in series [3]: CC(C)=CCC/C(C)=C/COP(=O)(O)OP(=O)(O)O
The source says:
(§2) malachite green phosphate release after HCl stop, Michaelis-Menten fit on SaTPS2
The source holds these as a separate data set.

Substrate in series [4]: CC(C)=CCC/C(C)=C/CC/C(C)=C/CO[P@@](=O)(O)OP(=O)(O)O
Excerpt: as §2
The source holds these as a separate data set.

B1: SaTPS3 (Santalum album) (protein)
chain: MESFVFLKSATSNANNSVKVDNRRSANYQSSVWDYNFLRLLGTTYTCCDTMEEEHVRIAEKLKEEVKSLIMGSMGPLANLEFIDAVQRLGLKYQFETEIKEALFAIYKDSNEEWWANDLHATALRFRLLRRNLLFVSQDVFERFKDKKTHDFSGELCEDVKGILSLYEACFLGWDGERVLDKARIFTTTHLNAMNRSTVSDGGSLDKKVKHALELPLHWRAPRVEARWFIDVYEQDPNMNLALLKLAKLDFNMVQSIHQKEVGELSRWWVRTGLDKLSFARNGLMQNYMYCCAVTFEPQFAHVREALTKIGSVLTATDDLYDVYGSLEELELFTSFIDRWDIKEIDELPRDIRLIFLAMYNLSNEIGFDILRDRDFNGVPYVAKMLGDVCSAYLKEARWYHGGYKPRMEEYLDNGLVSIGMLPLLAVAYMLTTDNLSKETVDHVAAAAPLVRYCSLLLRMIDDLGTSSDELRRGDTLKSVECYMNQAGASEEIAREHIEELVRNTWKKMNQCCFGDGQSSFADPFLSFTLNSVRGAHFFYQFGDGFGVTESWTKDTVLSVLFQPIPLDED
notes: full-length ORF, 6His-tagged, pET-28a, E. coli Rosetta 2 (DE3), Ni-NTA purified; no plastid transit peptide; SaTPS1 to 3 span 564 to 604 residues
In general, Km refers to the substrate concentration at which the rate is half of its maximum. Broadly, the kcat is the maximal rate divided by the concentration of active sites. The kcat/Km is the second-order rate constant that governs catalysis at low substrate concentration. As for B1, in series [1], the Km was 14.38 ± 1.20 µM, the kcat is 0.257 ± 0.008 s⁻¹ and the kcat/Km was 17900 M⁻¹ s⁻¹. Besides, in series [2], the Km was 16.29 ± 1.48 µM, the kcat amounted to 0.171 ± 0.006 s⁻¹ and the kcat/Km is 10500 M⁻¹ s⁻¹.

B2: SaTPS2 (Santalum album) (protein)
chain: MDSATLKVLCDNDANVKIEKNPSGNRRSANYEPSIWNYDFLQSLDSCYNIVEEKHLKLAEKLKGEVKSIIKAPMEPLAKLELVDVVQRLGLKHLFETEIKEALFTVYKDGSDAWWLGHLYATSLRFRLLRQAGLFIPQDVFEIFKSATGEFDMKLRDNIEGLLSLYEASFLGWKGENILDEAKAFTTEYLKNAWENIPQKWLAIRVKHALDLPLHWRVPRFEARWFIDAYEREENINPTLLKLAKLDFNMVQSIHQRELGKLARWWVSTGLDKLSFARNNLMQSYMYGTAVTSDPQFKLARETIVKTGSLITIVDDVYDVFGSIDELELYTNFVDRWNCTEVDELPNTIKMIFLAMFNTANEIGFQIQTERGFNGIPALSKAWDDLCKSYIKEAKWYHGKHKPTLQEYLGNAVVSVGFPLLMTTGYVAIADSEGALDKIDRIPDLVRYACLLNRLVNDLATSSDELARGDTLKSIECYMNQTGASEEIAREHIKGLIEDTWKTLNECSFDDSQFGEPFVSFNLNSVRGSHFFYQHGDGYGVTNSWTKDDLMSILINPISVDDES
notes: as for B1
Regarding B2, in series [3], the Km is 12.27 ± 1.32 µM, the kcat was 0.189 ± 0.007 s⁻¹ and the kcat/Km is 15400 M⁻¹ s⁻¹. Moreover, in series [4], the Km is 12.15 ± 1.32 µM, the kcat was determined as 0.2 ± 0.008 s⁻¹ and the kcat/Km came out at 16400 M⁻¹ s⁻¹.

Source of the values: PMC6437863, “Identification and functional characterization of three new terpene synthase genes involved in chemical defense and abiotic stresses in Santalum album” (BMC Plant Biology, 2019).
